Data published in publication PMC10691555.

What was measured:
[1] = biological target: Her2 on SK-BR-3 cells (human (endogenous in SK-BR-3)) (UniProt P04626); assay: flow cytometry on cells
[2] = biological target: recombinant Her2, biotinylated (UniProt P04626); assay: SPR
[3] = biological target: recombinant Her2, biotinylated (UniProt P04626); assay: plate binding titration of dye-labelled affibody

“Her2-specific affibody ZHer2:2891 conjugated with AlexaFluor 488nm dye (designed binder)” gave a Kd [1] of 7.12 nM, a Kd [2] of 0.115 nM and a Kd [3] of 11 nM.
